The target in this assay is T1, Human Claudin-7 (Cldn7), wild type, His-tagged (human), O95471.
T1 chain: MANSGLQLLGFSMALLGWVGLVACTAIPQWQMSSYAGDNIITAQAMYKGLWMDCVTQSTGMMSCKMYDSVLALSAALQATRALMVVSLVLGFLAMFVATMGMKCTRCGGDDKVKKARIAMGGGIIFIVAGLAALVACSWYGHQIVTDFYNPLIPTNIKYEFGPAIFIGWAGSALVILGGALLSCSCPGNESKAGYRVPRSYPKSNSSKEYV
Nature of the assay: SDS-PAGE and Western blot of SDS-stable oligomers; purified Cldn7 (IMAC eluate) on 10% SDS-PAGE, detected with an anti-His-tag antibody. Particulars: remark: other sources report otherwise. On the technique in general: A western blot detects proteins with antibodies after separation by electrophoresis.

Where “and” joins values, the source holds several entries; their conditions need not be identical. Equal entries are not always repeated.

B1: Human Claudin-7 (Cldn7), wild type, His-tagged, O95471 1-211 (natural protein)
chain: T1 chain
One may read the stoichiometry N as the number of molecules, sites or subunits per partner or assembly. For B1, the stoichiometry N is 2 and 3.

Source of the values: PMC9271825.
